Assay results reported in paper PMC7934869.

Columns and labels:
[1] = biological target: human Fc gamma receptor I (FcγRI) (human) (UniProt P12314); assay: BLI; Octet RED384; receptors loaded on HIS1K or SAX biosensors, probed into mAbs in a dilution series (2000, 100, 50, 25, 12.5 ug/mL [sic]); pH 7.4; 1:1 model; apparent affinity
[2] = biological target: human Fc gamma receptor IIB (FcγRIIB) (human) (UniProt P31994); assay: as above
[3] = biological target: human Fc gamma receptor IIIB, polymorphism NA1 (human) (UniProt O75015); assay: as above
Chain of human Fc gamma receptor IIIB, polymorphism NA1 (human) (O75015 17-233): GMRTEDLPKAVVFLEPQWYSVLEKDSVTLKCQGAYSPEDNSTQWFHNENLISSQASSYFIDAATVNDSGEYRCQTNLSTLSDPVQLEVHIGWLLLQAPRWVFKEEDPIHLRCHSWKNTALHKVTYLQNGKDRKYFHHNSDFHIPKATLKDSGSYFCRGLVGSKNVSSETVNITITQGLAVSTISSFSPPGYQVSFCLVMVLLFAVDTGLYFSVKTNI

[4] = biological target: human Fc gamma receptor IIA, polymorphism H167 (human) (UniProt P12318); assay: as above
Chain of human Fc gamma receptor IIA, polymorphism H167 (human) (P12318 34-217): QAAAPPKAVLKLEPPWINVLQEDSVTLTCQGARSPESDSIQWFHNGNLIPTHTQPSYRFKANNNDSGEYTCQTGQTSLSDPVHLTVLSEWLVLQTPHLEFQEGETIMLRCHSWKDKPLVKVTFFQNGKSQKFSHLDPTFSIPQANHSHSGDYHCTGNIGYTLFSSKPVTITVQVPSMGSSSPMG

[5] = biological target: human Fc gamma receptor IIIA, polymorphism V176 (human) (UniProt P08637); assay: as above
Chain of human Fc gamma receptor IIIA, polymorphism V176 (human) (P08637 17-208 F176V): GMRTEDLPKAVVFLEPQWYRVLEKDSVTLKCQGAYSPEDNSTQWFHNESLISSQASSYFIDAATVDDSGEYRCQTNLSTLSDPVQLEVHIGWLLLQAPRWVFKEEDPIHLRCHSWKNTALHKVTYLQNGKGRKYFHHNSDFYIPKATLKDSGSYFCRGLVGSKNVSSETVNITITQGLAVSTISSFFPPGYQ

[6] = biological target: human Fc gamma receptor IIIA, polymorphism F176 (human) (UniProt P08637); assay: as above
Chain of human Fc gamma receptor IIIA, polymorphism F176 (human) (P08637 17-208): as the sequence (P08637 17-208 F176V) above, with V160F counted along it

[7] = biological target: human Fc gamma receptor IIA, polymorphism R167 (human) (UniProt P12318); assay: as above
Chain of human Fc gamma receptor IIA, polymorphism R167 (human) (P12318 34-217 H167R): as the sequence (P12318 34-217) above, with H134R counted along it

[8] = biological target: human Fc gamma receptor IIIB, polymorphism NA2 (human) (UniProt O75015); assay: as above
[9] = biological target: human neonatal Fc receptor (FcRn) (human) (UniProt P55899); assay: BLI; Octet RED384; receptors loaded on HIS1K or SAX biosensors and probed into mAbs in a dilution series (2000, 100, 50, 25, 12.5 μg/mL as printed); pH 7.4; 1:1 model; apparent
Chain of human neonatal Fc receptor (FcRn) (human) (P55899 24-297, chain 1 of 2): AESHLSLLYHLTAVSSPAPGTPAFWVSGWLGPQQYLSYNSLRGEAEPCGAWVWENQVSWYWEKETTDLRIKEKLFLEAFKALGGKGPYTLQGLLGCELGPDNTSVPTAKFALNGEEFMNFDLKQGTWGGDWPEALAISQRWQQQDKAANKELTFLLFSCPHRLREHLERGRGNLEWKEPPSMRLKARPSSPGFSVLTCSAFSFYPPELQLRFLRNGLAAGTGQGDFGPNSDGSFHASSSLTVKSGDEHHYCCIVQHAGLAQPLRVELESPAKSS
Chain of human neonatal Fc receptor (FcRn) (human) (P61769 21-119, chain 2 of 2, further chain): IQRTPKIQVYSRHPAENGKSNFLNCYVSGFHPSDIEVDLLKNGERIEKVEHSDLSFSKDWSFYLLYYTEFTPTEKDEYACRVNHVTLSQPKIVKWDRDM

[10] = biological target: rhesus neonatal Fc receptor (FcRn) (rhesus) (UniProt Q6V7J5); assay: as above
[11] = biological target: human neonatal Fc receptor (FcRn) (human) (UniProt P55899); assay: BLI; Octet RED384; receptors loaded on HIS1K or SAX biosensors and probed into mAbs in a 2-fold dilution series (20, 10, 5, 2.5, 1.25 μg/mL); pH 6.0; 1:1 model; apparent
[12] = biological target: rhesus neonatal Fc receptor (FcRn) (rhesus) (UniProt Q6V7J5); assay: as above

Chain of human Fc gamma receptor IIB (FcγRIIB) (human) (P31994 43-217): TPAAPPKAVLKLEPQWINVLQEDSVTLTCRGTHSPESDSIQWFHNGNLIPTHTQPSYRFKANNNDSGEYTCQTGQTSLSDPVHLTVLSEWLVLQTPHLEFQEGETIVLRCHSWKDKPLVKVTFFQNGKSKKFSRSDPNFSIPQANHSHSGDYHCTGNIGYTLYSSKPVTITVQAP
Chain of human Fc gamma receptor I (FcγRI) (human) (P12314 16-292): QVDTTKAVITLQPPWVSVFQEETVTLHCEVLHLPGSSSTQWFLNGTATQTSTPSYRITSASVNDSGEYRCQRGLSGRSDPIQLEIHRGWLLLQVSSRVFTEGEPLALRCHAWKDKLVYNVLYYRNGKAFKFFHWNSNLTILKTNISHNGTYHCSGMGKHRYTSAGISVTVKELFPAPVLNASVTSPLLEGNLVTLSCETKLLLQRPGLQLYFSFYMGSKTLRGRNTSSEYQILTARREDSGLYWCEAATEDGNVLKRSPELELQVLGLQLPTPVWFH

Substance | Kd [1] [µM] | koff [1] [s⁻¹] | kon [1] [M⁻¹ s⁻¹] | Kd [2] [µM] | koff [2] [s⁻¹] | kon [2] [M⁻¹ s⁻¹] | Kd [3] [µM] | koff [3] [s⁻¹] | kon [3] [M⁻¹ s⁻¹] | Kd [4] [µM] | koff [4] [s⁻¹] | kon [4] [M⁻¹ s⁻¹] | Kd [5] [µM] | koff [5] [s⁻¹] | kon [5] [M⁻¹ s⁻¹] | Kd [7] [µM] | koff [7] [s⁻¹] | kon [7] [M⁻¹ s⁻¹] | Kd [8] [µM] | koff [8] [s⁻¹] | other results
CIS43 human monoclonal antibody | 0.0148 | 0.00278 | 187000 | 3.13 | 0.812 | 259000 | 1.03 | 0.442 | 430000 | 3.83 | 0.676 | 176000 | 0.652 | 0.105 | 161000 | 1.48 | 0.514 | 348000 | 1.28 | 0.419 | Kd [6]: 1.74 µM; koff [6]: 0.273 s⁻¹; kon [6]: 157000 M⁻¹ s⁻¹; kon [8]: 327000 M⁻¹ s⁻¹
CIS43LS (antibody) | – | – | – | – | – | – | – | – | – | – | – | – | – | – | – | – | – | – | – | – | Kd [9]: 0.234 µM; Kd [10]: 0.262 µM; Kd [11]: 0.0062 µM; Kd [12]: 0.0251 µM
CIS43LS (CIS43 with the LS mutations M451L/N457S in the CH3 domain of the Fc region) (antibody) | 0.0158 | 0.00308 | 194000 | 3.8 | 0.874 | 230000 | 1.19 | 0.356 | 300000 | 2.49 | 0.598 | 240000 | 0.55 | 0.0433 | 78700 | 0.764 | 0.349 | 457000 | 0.854 | 0.25 | kon [8]: 293000 M⁻¹ s⁻¹
CIS43 (antibody) | – | – | – | – | – | – | – | – | – | – | – | – | – | – | – | – | – | – | – | – | Kd [11]: 0.0542 µM; Kd [12]: 0.326 µM
